{
  "source": "patent US20260184748A1",
  "about": "(University of Pennsylvania, published 2026)",
  "test_in_all_cases": "cell-based or functional assay",
  "key": {"[1]": {"target": "T1, ADRA1B (UniProt P35368 1-520)", "T1 sequence (looked up)": "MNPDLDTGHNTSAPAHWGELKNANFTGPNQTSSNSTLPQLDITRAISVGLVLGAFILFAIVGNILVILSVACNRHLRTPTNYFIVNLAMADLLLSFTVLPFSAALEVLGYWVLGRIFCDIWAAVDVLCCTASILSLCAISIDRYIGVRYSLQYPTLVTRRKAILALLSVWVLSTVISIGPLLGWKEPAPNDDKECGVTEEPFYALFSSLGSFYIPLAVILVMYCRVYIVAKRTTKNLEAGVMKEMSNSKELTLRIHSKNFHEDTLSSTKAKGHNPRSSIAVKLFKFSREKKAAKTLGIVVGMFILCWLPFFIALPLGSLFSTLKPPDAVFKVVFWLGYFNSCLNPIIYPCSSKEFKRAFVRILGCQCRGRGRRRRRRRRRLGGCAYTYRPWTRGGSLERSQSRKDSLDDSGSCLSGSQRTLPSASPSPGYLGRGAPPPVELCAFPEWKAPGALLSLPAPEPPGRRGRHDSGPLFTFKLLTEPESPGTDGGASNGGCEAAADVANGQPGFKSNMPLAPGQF"}, "[2]": {"target": "T2, DRD4 (UniProt P21917 1-419, limits assumed)", "T2 sequence (looked up)": "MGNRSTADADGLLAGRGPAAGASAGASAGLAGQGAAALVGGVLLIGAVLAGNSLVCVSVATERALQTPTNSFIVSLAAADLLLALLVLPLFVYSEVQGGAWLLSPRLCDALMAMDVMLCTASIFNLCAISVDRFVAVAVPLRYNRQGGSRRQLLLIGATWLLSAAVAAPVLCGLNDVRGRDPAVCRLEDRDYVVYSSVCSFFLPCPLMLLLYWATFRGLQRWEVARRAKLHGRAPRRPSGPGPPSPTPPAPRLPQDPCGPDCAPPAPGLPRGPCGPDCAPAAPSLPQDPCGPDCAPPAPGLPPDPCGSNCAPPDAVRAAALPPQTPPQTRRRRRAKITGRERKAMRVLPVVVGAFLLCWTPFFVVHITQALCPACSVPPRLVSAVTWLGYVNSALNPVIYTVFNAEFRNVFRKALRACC"}, "[3]": {"target": "T3, NPBWR1 (UniProt P48145 1-328)", "T3 sequence (looked up)": "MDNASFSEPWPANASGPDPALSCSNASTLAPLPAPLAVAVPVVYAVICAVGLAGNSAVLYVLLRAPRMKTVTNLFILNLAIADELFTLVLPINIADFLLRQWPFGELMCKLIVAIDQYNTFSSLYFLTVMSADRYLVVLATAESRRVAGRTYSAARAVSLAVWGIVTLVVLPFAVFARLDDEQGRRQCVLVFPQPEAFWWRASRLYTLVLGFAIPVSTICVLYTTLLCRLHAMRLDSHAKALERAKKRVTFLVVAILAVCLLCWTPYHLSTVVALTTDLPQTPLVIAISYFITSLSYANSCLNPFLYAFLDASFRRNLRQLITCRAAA"}, "[4]": {"target": "T4, CXCR1 (UniProt P25024 1-350)", "T4 sequence (looked up)": "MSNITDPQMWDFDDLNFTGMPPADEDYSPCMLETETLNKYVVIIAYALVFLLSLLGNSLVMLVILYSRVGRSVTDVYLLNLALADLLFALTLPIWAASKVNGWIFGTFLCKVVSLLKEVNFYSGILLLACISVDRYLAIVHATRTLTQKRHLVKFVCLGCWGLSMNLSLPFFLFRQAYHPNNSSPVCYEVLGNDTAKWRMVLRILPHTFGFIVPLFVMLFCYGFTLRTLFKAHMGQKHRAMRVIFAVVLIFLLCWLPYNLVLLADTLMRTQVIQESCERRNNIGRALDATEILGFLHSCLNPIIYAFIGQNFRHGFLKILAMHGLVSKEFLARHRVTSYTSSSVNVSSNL"}, "[5]": {"target": "T5, EDG7 (UniProt Q9UBY5 1-353)", "T5 sequence (looked up)": "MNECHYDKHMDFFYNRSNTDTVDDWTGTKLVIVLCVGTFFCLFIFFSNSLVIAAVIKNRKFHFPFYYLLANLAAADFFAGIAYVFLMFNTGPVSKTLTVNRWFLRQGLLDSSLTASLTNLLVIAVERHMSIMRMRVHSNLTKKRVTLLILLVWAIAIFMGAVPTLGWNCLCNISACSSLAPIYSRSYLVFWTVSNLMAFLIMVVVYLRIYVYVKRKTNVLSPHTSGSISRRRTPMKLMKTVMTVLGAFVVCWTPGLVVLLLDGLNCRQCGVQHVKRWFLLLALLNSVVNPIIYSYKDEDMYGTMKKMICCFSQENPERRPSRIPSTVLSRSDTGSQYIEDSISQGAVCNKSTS"}, "[6]": {"target": "MC3R (UniProt P41968 1-323)", "sequence (P41968 whole entry)": "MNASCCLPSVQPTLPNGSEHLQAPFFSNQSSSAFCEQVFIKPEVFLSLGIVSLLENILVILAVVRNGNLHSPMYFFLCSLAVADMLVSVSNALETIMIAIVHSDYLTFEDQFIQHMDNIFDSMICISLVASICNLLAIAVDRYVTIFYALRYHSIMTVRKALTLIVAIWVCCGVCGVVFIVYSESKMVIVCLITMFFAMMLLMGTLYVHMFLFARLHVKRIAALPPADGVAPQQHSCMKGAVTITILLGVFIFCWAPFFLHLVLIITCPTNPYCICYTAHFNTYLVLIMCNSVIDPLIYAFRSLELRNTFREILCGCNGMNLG"}, "[7]": {"target": "LHCGR (UniProt P22888 27-699)", "sequence (P22888 27-699 limits assumed)": "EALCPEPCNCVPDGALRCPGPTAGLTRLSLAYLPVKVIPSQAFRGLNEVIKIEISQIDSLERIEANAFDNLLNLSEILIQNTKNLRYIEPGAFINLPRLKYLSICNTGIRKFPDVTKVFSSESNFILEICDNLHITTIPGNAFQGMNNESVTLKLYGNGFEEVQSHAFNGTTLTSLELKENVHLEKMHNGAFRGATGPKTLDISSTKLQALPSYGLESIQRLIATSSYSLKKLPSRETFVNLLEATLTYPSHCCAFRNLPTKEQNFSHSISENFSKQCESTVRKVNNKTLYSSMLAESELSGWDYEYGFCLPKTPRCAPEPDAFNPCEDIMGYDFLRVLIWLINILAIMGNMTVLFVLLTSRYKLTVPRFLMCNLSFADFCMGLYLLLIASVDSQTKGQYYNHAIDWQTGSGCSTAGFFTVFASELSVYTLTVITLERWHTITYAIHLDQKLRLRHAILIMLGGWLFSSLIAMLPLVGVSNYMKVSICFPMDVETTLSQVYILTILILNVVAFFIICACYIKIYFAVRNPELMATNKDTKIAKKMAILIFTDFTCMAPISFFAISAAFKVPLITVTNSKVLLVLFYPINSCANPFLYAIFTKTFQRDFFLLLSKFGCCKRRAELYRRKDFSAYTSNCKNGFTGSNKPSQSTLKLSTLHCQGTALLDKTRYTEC"}, "[8]": {"target": "CNR2 (UniProt P34972 1-360)", "sequence (P34972 whole entry)": "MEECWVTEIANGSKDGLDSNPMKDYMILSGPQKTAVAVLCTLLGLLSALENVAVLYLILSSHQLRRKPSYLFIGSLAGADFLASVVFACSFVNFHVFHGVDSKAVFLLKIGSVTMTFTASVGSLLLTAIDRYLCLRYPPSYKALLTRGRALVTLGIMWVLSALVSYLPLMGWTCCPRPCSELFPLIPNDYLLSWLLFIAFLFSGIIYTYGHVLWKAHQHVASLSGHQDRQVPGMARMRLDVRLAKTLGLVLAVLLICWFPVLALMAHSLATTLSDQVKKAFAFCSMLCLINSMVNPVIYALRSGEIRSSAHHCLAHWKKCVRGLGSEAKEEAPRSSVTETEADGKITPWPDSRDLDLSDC"}, "[9]": {"target": "CXCR6 (UniProt O00574 1-342)", "sequence (O00574 whole entry)": "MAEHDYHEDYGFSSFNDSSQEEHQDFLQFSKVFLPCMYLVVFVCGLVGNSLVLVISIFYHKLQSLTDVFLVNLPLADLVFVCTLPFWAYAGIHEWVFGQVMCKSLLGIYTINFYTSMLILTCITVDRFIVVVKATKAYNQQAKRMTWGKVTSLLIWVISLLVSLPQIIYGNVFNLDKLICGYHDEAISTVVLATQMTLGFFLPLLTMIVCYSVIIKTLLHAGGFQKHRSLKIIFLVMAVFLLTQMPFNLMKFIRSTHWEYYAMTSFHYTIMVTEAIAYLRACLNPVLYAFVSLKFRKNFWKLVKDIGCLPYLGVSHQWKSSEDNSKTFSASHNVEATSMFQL"}, "[10]": {"target": "T6, HTR1F (UniProt P30939 1-366)", "T6 sequence (looked up)": "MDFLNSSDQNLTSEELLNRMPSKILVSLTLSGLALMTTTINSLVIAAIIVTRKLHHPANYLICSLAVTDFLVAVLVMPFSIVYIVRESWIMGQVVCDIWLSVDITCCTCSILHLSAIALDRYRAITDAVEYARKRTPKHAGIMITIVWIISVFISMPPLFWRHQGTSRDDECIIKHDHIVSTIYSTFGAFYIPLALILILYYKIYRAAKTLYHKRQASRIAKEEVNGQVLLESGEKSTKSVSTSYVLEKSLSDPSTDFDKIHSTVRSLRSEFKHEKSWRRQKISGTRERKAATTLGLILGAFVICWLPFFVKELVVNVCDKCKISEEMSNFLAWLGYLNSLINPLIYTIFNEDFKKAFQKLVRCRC"}},
  "note": "Where no end group is shown, it is not given here.",
  "data": [
    {"binder": "QATVGDVNTDRPGLLDLK (also: synthesised on Rink amide resin, C-terminal amide not given here outright)", "note": "[octadecaneuropeptide (ODN)]", "values": [
      {"measurement": "% Activity, arrestin, antagonist mode, 2.5 uM", "setting": "[1]", "result": 0.1, "unit": "%"},
      {"measurement": "% Activity, arrestin, antagonist mode, 2.5 uM", "setting": "[2]", "result": 2.5, "unit": "%"},
      {"measurement": "% Activity, arrestin, antagonist mode, 2.5 uM", "setting": "[3]", "result": -15, "unit": "%"},
      {"measurement": "% Activity, arrestin, antagonist mode, 2.5 uM", "setting": "[4]", "result": 10.2, "unit": "%"},
      {"measurement": "% Activity, arrestin, antagonist mode, 2.5 uM", "setting": "[5]", "result": 5, "unit": "%"},
      {"measurement": "% Activity, arrestin, antagonist mode, 2.5 uM", "setting": "[6]", "result": -2.1, "unit": "%"},
      {"measurement": "% Activity, arrestin, antagonist mode, 2.5 uM", "setting": "[7]", "result": 7.2, "unit": "%"},
      {"measurement": "% Activity, arrestin, antagonist mode, 2.5 uM", "setting": "[8]", "result": 3.6, "unit": "%"},
      {"measurement": "% Activity, arrestin, antagonist mode, 2.5 uM", "setting": "[9]", "result": -1.3, "unit": "%"},
      {"measurement": "% Activity, arrestin, antagonist mode, 2.5 uM", "setting": "[10]", "result": -23.3, "unit": "%"}
    ]}
  ]
}
